What was measured:
[1] = target: T1, rat Na+/K+ ATPase α1 subunit (rat, UniProt P06685); assay: co-immunoprecipitation from co-transfected COS cells (FIGS. 7-9)
[2] = target: T1, rat Na+/K+ ATPase α1 subunit; assay: co-immunoprecipitation from co-transfected COS cells with anti-Na+/K+ ATPase α1 or anti-hCG antibody (FIG. 6)

Binder	binding result [1]	binding result [2]
neomycin phosphotransferase (NPT) (enzyme) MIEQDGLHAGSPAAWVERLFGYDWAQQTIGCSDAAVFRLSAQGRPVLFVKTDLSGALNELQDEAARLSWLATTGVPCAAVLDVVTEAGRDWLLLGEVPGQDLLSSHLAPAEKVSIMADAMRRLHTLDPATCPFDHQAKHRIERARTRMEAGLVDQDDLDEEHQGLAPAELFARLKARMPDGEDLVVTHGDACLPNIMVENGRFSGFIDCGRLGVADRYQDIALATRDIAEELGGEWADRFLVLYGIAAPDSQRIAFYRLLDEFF	no binding	–
human chorionic gonadotropin α (hCG-α) (ligand) not shown	–	no binding

Source: patent US6306613, “Modulators of leaderless protein export and methods for identifying and using the same” (Ciblex Corporation, dated 2001)
